pIC50: −log10 of the molar value. Where two headings read alike, the source gives them in different places.

A word on the % Inhibition: it is the relative decrease from the control value, in per cent. In general, IC50 refers to the midpoint of a concentration-inhibition curve. The Cmax is the peak of the concentration-time curve. Broadly, the Tmax is the time at which the peak concentration occurs.

One data set addresses BKCa (human) (UniProt Q12791). The experiment in a line: cell-based or functional assay.
Another data set addresses human Kv1.1 (Homo sapiens, UniProt Q09470). The experiment in a line: cell-based or functional assay.
A further data set addresses hCav1.2 (ICa) (human) (UniProt Q13936). The experiment in a line: cell-based or functional assay.
Data set [1] addresses T1, hKv1.2 (Homo sapiens, UniProt P16389). The experiment in a line: cell-based or functional assay.
Data set [2] concerns the target T2, hKv1.5 (Homo sapiens, UniProt P22460). The experiment in a line: cell-based or functional assay.
The target of data set [3] is T3, hKv1.6 (Homo sapiens, UniProt P17658). Description: cell-based or functional assay.
The target in a further data set is hKv4.3 (Ito) (human) (UniProt Q9UK17). Description: cell-based or functional assay.
The next data set concerns the target hNav1.5 (INa) (human) (UniProt Q14524). The experiment in a line: cell-based or functional assay.
The target in data set [4] is T4, hKv1.7 (Homo sapiens, UniProt Q96RP8). The experiment in a line: cell-based or functional assay.
Data set [5] has as its target cynomolgus monkey T cell Kv1.3 (cynomolgus monkey). Description: cell-based or functional assay.
Another data set addresses hERG (IKr) (human) (UniProt Q12809). The experiment in a line: cell-based or functional assay.
Data set [6] concerns the target T5, human Kv1.3 (Homo sapiens, UniProt P22001). Description: cell-based or functional assay.
In data set [7] the target is T6, hKv1.4 (Homo sapiens, UniProt P22459). Description: cell-based or functional assay.
For data set [8], the target named is NMDA (Cerep target) (human).
Data set [9] has as its target Glycine (Strychnine insensitive) (Cerep target) (human).
Data set [10] deals with NMDA (Cerep target) (human). The experiment in a line: Cerep safety pharmacology binding assay.
The target in data set [11] is Glycine (Strychnine insensitive) (Cerep target) (human). Description: Cerep safety pharmacology binding assay.
Data set [12] deals with T7, hKv1.3 (Homo sapiens, UniProt P22001). Description: cell-based. In kind it is cell-based.
The test system of data set [13] is IL-2 secretion from T cells in human whole blood. In kind it is cell-based.
In data set [14] the target is T7, hKv1.3. The experiment in a line: cell-based.
The subject of data set [15] is IFN-g secretion from T cells in human whole blood. In kind it is cell-based. Particulars: for pIC50: read-out: WB (IFNg) IC50.
The subject of data set [16] is rat T effector memory cell line, PAS. It counts as cell-based. As to conditions: read-out: IC50 inhibition of myelin-specific proliferation of PAS T cells.
Data set [17] has as its target T1, hKv1.2. In kind it is cell-based. Particulars: PatchXpress; read-out: Kv1.2 IC50. On the procedure:
(§1) Kv1.1, Kv1.2, Kv1.3, Kv1.4, Kv1.6 and Kv1.7, PatchXpress®, planar patch-clamp electrophysiology. Ion channel currents were recorded at room temperature using PatchXpress® 7000A electrophysiology system from MDC using methods and cells described in Example 1 above.

The target of data set [18] is T3, hKv1.6. In kind it is cell-based. As to conditions: PatchXpress; read-out: Kv1.6 IC50. On the procedure: as §1
Data set [19] has as its target T4, hKv1.7. In kind it is cell-based. As to conditions: PatchXpress; read-out: Kv1.7 IC50. On the procedure: as §1
For data set [20], the target named is T6, hKv1.4. In kind it is cell-based. As to conditions: PatchXpress; read-out: Kv1.4 IC50. How it is done: as §1
The target of data set [21] is T5, human Kv1.3. It counts as cell-based. As to conditions: read-out: Kv1.3 IC50, whole cell patch clamp. In general terms: Patch clamp records ionic current or voltage across a cell membrane.
Data set [22] is classed as in vivo, rat. An excerpt:
Single subcutaneous doses were delivered to animals and serum was collected at various time points after injection. Studies in rats, dogs (beagles), and cynomolgus monkeys involved two to three animals per dose group, with blood and serum collection occurring at various time points over the course of the study. Male Sprague-Dawley (SD) rats (about 0.3 kg), male beagles (about 10 kg) and male cynomolgus monkeys (about 4 kg) were used in the studies described herein (n=3 animals per dose group). Approximately 5 male CD-1 mice were used per dose and time point in our mouse pharmacokinetic studies. Serum samples were stored frozen at −80° C., until analysis in an enzyme-linked immunosorbent assay (ELISA).
Single subcutaneous doses were delivered to animals and serum was collected at various time points after injection. Three animals were used per dose group, with blood and serum collection occurring at various time points over the course of the study. Serum samples were stored frozen at −80° C., until analysis in an enzyme-linked immunosorbent assay (ELISA). […] A brief description of these ELISA protocols is provided: […]

Data set [23] concerns the target T2, hKv1.5. Particulars: read-out: Kv1.5 IC50; PatchXpress.
Data set [24] is classed as in vivo, rat. Particulars: male SD rats, single SC dose. How it is done:
Hypoactivity and lateral recumbence were also observed at 0.4 mg/kg. […] The severity of swelling was not dose dependent, and all clinical observations noted in all groups that survived to their scheduled euthanasia resolved by approximately 24 hours postdose. […] Other changes noted at lower doses were limited to decreased lymphocytes and triglycerides at 0.4 mg/kg.
All clinical signs were resolved by day 11. […] Hematologic effects in animals given ≧0.5 mg/kg/day were consistent with increased red cell turnover, and correlated with increased spleen weights, and increased splenic hemopoiesis.
Exposures increased with increasing dose up to 2.5 mg/kg, but exposures were similar in rats given 2.5 and 5.0 mg/kg. […] There was a decrease in body weight and body weight gain noted in the 2.5 and 5.0 mg/kg/dose groups. […] Urine chemistry values were increased in a few animals/group at 0.5 or 2.0 mg/kg/day, but these changes were inconsistent among and within animals, and considered unlikely to be related to treatment. There were no test article-related effects on biomarkers of renal injury (beta-2 microglobulin, calbindin, clusterin, cystatin C, glutathione S-transferase alpha, kidney injury molecule-1, neutrophil gelatinase-associated lipocalin, osteopontin, tissue inhibitor of metalloproteinase-1, and vascular endothelial growth factor). […]

Where [25] appears, read: Sprague-Dawley rats, single SC 6 mg/kg.

T5 sequence (P22001 whole entry): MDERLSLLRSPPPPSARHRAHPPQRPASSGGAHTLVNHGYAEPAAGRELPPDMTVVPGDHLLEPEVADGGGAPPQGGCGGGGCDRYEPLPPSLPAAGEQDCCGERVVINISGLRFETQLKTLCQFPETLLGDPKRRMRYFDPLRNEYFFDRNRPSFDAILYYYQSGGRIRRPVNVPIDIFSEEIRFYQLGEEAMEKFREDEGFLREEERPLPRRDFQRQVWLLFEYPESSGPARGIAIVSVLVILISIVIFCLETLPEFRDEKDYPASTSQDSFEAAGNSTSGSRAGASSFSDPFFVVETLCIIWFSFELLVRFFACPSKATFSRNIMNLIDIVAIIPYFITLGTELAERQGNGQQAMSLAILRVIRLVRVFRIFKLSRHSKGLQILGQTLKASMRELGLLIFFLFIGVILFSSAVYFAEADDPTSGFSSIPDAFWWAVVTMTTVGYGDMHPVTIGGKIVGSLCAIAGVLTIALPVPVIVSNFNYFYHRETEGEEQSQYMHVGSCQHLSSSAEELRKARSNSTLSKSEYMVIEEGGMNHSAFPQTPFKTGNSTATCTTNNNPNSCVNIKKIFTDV
T7 sequence (P22001 whole entry): as above
T3 sequence (P17658 whole entry): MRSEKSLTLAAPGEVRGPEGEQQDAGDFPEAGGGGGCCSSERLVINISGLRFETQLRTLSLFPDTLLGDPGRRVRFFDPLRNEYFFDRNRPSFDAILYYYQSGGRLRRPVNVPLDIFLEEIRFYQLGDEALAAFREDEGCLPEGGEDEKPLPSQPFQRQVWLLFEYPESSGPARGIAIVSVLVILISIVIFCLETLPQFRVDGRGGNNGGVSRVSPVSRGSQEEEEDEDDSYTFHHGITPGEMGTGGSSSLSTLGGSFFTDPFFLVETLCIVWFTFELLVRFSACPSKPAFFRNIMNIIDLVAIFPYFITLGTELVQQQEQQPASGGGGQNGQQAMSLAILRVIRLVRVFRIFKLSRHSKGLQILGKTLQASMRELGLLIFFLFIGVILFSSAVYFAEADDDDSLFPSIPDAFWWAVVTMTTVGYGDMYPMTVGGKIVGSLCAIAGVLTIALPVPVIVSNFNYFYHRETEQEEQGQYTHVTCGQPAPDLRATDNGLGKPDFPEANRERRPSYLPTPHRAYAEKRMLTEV
T6 sequence (P22459 whole entry): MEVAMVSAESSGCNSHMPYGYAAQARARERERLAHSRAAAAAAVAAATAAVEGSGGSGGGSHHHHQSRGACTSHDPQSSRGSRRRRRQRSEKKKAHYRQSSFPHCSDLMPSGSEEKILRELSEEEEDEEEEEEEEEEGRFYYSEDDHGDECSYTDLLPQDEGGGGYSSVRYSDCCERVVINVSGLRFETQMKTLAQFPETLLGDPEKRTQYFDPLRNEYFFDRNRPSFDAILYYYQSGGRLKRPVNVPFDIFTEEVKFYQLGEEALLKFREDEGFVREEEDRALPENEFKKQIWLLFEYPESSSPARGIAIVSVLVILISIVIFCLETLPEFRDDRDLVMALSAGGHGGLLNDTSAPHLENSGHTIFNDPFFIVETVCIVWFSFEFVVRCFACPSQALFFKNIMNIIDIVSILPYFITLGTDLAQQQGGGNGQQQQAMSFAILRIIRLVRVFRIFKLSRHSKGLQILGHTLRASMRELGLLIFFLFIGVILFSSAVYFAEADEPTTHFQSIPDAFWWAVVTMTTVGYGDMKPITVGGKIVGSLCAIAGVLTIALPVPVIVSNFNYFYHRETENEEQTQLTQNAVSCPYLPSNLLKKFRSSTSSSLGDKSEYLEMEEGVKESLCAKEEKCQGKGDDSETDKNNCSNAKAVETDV
T1 sequence (P16389 whole entry): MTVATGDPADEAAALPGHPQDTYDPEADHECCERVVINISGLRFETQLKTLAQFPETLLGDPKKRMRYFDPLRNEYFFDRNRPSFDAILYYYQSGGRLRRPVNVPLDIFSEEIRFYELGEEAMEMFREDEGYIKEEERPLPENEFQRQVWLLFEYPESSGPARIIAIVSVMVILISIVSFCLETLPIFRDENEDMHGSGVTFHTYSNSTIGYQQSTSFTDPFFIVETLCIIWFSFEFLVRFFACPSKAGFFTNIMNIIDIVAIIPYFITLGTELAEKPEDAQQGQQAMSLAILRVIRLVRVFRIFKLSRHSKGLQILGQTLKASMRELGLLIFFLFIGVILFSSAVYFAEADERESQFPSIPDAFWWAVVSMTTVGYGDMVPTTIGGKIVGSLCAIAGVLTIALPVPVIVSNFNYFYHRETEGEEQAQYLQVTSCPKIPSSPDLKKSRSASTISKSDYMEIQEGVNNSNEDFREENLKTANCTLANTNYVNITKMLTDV
T2 sequence (P22460 whole entry): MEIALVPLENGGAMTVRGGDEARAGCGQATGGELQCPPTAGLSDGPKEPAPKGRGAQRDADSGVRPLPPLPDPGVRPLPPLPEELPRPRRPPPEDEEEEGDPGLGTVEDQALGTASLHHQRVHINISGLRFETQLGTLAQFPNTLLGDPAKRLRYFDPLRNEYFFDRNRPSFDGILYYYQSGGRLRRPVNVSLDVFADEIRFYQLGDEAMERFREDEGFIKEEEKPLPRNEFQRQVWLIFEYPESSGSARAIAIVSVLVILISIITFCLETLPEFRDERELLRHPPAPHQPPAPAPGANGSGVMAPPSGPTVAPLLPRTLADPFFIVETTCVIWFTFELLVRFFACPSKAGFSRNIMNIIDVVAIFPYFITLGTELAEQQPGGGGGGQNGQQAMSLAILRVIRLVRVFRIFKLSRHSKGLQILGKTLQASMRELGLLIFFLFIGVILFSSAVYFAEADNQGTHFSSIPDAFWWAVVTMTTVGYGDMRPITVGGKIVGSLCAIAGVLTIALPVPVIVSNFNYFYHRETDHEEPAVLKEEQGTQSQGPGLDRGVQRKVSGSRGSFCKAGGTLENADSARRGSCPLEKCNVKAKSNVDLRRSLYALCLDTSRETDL
T4 sequence (Q96RP8 whole entry): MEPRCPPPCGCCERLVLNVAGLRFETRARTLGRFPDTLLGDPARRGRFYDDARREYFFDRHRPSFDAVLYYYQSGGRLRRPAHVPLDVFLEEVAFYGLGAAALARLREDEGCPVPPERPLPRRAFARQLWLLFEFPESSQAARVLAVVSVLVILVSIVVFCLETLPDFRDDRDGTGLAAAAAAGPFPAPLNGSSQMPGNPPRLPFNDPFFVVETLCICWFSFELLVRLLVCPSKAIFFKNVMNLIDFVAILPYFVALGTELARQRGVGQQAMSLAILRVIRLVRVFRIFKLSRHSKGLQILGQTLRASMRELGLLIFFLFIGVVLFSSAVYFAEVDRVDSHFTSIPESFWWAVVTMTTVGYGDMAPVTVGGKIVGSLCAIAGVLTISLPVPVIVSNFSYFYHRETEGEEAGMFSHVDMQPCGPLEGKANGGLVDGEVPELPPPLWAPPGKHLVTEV
Chain of hKv4.3 (Ito) (human) (Q9UK17 whole entry): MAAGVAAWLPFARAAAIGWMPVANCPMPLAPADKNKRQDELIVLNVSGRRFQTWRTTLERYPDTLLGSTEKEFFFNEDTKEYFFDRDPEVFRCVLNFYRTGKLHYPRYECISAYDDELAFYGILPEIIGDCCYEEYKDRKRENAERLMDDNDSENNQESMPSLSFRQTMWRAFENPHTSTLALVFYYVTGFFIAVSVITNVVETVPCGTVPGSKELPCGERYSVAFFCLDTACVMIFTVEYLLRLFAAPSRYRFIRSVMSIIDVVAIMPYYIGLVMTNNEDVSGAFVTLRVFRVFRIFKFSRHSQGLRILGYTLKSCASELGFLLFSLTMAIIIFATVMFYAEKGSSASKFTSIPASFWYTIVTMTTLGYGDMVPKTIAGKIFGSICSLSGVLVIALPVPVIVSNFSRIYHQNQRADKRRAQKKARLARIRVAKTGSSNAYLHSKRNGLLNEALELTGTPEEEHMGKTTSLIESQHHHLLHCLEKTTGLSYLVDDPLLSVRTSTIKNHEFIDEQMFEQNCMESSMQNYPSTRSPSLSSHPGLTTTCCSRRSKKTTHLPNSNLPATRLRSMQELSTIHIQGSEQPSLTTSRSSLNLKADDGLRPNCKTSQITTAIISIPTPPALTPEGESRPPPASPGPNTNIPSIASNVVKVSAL
Chain of human Kv1.1 (Q09470 whole entry): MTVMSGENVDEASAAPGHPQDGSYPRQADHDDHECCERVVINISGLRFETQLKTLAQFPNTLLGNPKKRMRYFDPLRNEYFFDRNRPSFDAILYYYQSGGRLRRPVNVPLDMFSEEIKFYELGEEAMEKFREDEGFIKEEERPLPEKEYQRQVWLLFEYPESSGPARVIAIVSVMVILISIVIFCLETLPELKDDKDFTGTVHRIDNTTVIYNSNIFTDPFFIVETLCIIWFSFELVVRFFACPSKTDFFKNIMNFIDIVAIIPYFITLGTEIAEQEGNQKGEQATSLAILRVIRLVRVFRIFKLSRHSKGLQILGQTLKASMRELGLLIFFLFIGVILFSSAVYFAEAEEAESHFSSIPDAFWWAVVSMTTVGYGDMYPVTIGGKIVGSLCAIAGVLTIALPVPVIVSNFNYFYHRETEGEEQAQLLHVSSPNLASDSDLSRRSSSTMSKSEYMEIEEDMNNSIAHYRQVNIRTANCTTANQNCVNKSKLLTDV

In the data set with BKCa (human), 20 kDa PEG-[Lys16]ShK (peptide) gave a BKCa IC50 above 10000 nM. In the data set with human Kv1.1, the Kv1.1 (IWQ) IC50 is 1080 nM. In the data set with hCav1.2 (ICa) (human), this molecule registered a Cav1.2 (ICa) IC50 above 30000 nM. This molecule also displayed a Kv1.2 IC50 with hKv1.2 [1] of 639 nM. In the data set with hKv1.5 [2], the Kv1.5 IC50 was above 30000 nM. In addition, the Kv1.6 IC50 with hKv1.6 [3] is 466 nM. The molecule further had a Kv4.3 (Ito) IC50 in the data set with hKv4.3 (Ito) (human) above 30000 nM. Also, in the data set with hNav1.5 (INa) (human), the Nav1.5 (INa) IC50 was above 30000 nM. Moreover, the Kv1.7 IC50 in the data set with hKv1.7 [4] was above 10000 nM. In [5], the cyno whole blood PD assay, IL-4 response IC50 is 0.17 nM and the cyno whole blood PD assay, IL-17 response IC50 is 0.09 nM. For the same molecule, the hERG (IKr) IC50 with hERG (IKr) (human) is above 10000 nM. Moreover, in the data set with human Kv1.3 [6], the IFNγ production in human whole blood IC50 worked out at 0.24 nM, the IL-2 production in human whole blood IC50 came out at 0.109 nM, the Kv1.3 (IWQ) IC50 was found to be 0.665 nM and the WB (IFNg) IC50 was determined as 0.215 nM. In the data set with human Kv1.3 [6], the WB (IL-2) IC50 is 0.104 nM and the whole blood IL-2 secretion IC95 came out at 1.01 nM. In addition, the Kv1.4 IC50 with hKv1.4 [7] was above 10000 nM. Further, in data set [8], the % Inhibition was 71%. Also, the % Inhibition in [9] is 101%. In [10], the pIC50 is 5.00. Further, in data set [11], the pIC50 is 5.77.

Consider `CC[C@H](C)[C@@H]1NC(=O)[C@@H](NC(=O)[C@H](CO)NC(=O)[C@@H](N)CCCNC(=N)N)CSSC[C@@H](C(=O)N[C@@H](C)C(=O)O)NC(=O)[C@H]([C@@H](C)O)NC(=O)CNC(=O)[C@@H]2CSSC[C@@H]3NC(=O)[C@H](CCCCN)NC(=O)[C@H](Cc4ccccc4)NC(=O)[C@H](C)NC(=O)[C@H]([C@@H](C)O)NC(=O)[C@H](CSSC[C@H](NC(=O)[C@H](Cc4ccccc4)NC(=O)[C@H](CO)NC(=O)[C@H](CC(C)C)NC(=O)[C@H](CCCNC(=N)N)NC(=O)[C@H](Cc4ccc(O)cc4)NC(=O)[C@H](CCCCN)NC(=O)[C@H](CCSC)NC(=O)[C@H](CO)NC(=O)[C@H](Cc4c[nH]cn4)NC(=O)[C@H](CCCCN)NC3=O)C(=O)N[C@@H](CCCNC(=N)N)C(=O)N[C@@H](CCCCN)C(=O)N[C@@H]([C@@H](C)O)C(=O)N2)NC(=O)[C@H](CCCNC(=N)N)NC(=O)[C@H](CO)NC(=O)[C@H](CCCCN)NC(=O)[C@@H]2CCCN2C(=O)[C@H]([C@@H](C)CC)NC(=O)[C@H]([C@@H](C)O)NC(=O)[C@H](CC(=O)O)NC1=O` [[Lys16]ShK-Ala], for which the IC50 worked out at 9.5 nM on hKv1.3 [12] (Kv1.3 (IWQ) IC50 (nM, Avg)); 0.138 nM in [13] (read-out: WB (IL-2) IC50 (nM, Avg)); 0.266 nM in data set [15] (read-out: WB (IFNg) IC50 (nM, Avg)). The pIC50 in data set [13] (read-out: IC50 blocking IL-2 secretion from human whole blood) was 9.86; in data set [13] (read-out: WB (IL-2) IC50), 9.86; against hKv1.3 [14] it was 10.22; in [15], 9.58.

Take “Monovalent aKLH HC-ShK(1-35 Q16K) Ab: anti-KLH IgG2 antibody with [Lys16]ShK fused to the C-terminus of one heavy chain”: the pIC50 in data set [16] was 9.08; with hKv1.2 [17], 5.10; with hKv1.6 [18], below 6.21; with hKv1.7 [19], below 5.00; in the data set with hKv1.4 [20], below 5.00; in data set [13] (read-out: WB (IL-2) IC50), 9.53. Further, the pIC50 with human Kv1.3 [21] is 9.45; in [15], 9.18; with hKv1.5 [23] it was below 5.00. Further, the “Exposure (AUC0-inf) normalized for MW, times greater than ShK-L5” value in [22] (150 kDa//4 kDa) was “about 163 times”. Besides, in data set [22] (setting [25]), the AUC0-t came out at 481 ± 157 µg·h/mL. In [22] (setting [25]), this molecule gave a Cmax of 5890 ± 1770 ng/mL. This molecule also returned an HL in data set [22] (setting [25]) of 32 ± 13.9 h. For the same molecule, the Tmax in data set [22] (setting [25]) is recorded as 32 ± 13.9 h.

Turning to “PEG-[1-Nal 16]ShK: PEG conjugate of the 1-Nal16 analog of ShK, relatively Kv1.3-inactive (RSCIDTIPKSRCTAFXCKHSMKYRLSFCRKTCGTC; PEG; ShK PEGylated toxin peptide analog; PEGylated; 3-(1-naphthyl)alanine)”, the “Times less activity of the PEG conjugate than of the free peptide (Kv1.3)” value with hKv1.3 [12] is “about 57 times”. Further, the “Molar AUC exposure compared with PEG-[Lys16]ShK and anti-KLH Ab-[Lys16]ShK” value in [24] is on record as 6-8 ×.

(Values after US20120121591A1 (priority 2009, published 2012).)
